Common to all, as to assay: ELISA: GST-PSCA fusion protein 50 ng/well, hybridoma supernatant, anti-mouse-HRP, TMB; mean of duplicates
Background: An ELISA detects its analyte on a solid surface through an enzyme-linked reagent.

In test [1] the target is T1, PSCA-glutathione S-transferase (GST) fusion protein (human) (UniProt O43653).
T1 sequence: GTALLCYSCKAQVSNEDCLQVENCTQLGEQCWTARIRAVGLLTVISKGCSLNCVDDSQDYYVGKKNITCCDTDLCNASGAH

For a further test, the target named is T2, M (46-109).
T2 sequence (O43653 whole entry, species assumed, looked up): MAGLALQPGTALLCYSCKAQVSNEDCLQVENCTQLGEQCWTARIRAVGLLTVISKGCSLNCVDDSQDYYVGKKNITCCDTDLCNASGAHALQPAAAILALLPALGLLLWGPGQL

Substrate in test [2]: T3, N (2-50)
T3 sequence (O43653 whole entry, species assumed, looked up): T2 sequence (O43653 whole entry, species assumed, looked up)

Substrate in test [3]: T4, C (85-123)
T4 sequence (O43653 whole entry, species assumed, looked up): T2 sequence (O43653 whole entry, species assumed, looked up)

B1: anti-PSCA monoclonal antibody 2H9 (antibody, part only; not given: light chain, mouse IgG1, part only)
VH: NDFGLSWVFIIVLLKGVRSEVRLEESGGGWVQPGGSMKLSCVASGFTFSNYWMTWVRQSPEKGLEWVAEIRLRSENYATHYAESVKGKFTISRDDSRSRLYLQMNNLRPEDSGIYYCTDGLGRPNWGQGTLVTVSAAKTTPPSVYPLAPCV
On to B1, for which the OD 450 nm in test [1] was 1.07 OD 450 nm; with M (46-109), 0.002 OD 450 nm; in test [2] it was 1.03 OD 450 nm; in test [3], 0.001 OD 450 nm.

B2: anti-PSCA monoclonal antibody 1G8 (antibody, part only; not given: light chain, mouse IgG1, V domains shown, part only)
VH: CFFLMAVVIGVNSEVQLQQSGAELVRSGASVKLSCTASGFNIKDYYIHWVNQRPDQGLEWIGWIDPENGDTEFVPKFQGKATMTADIFSNTAYLHLSSLTSEDTAVYYCKTGGFWGQGTLVTVSAAKTTPPSVYPL
As to B2, the OD 450 nm worked out at 1.49 OD 450 nm in test [1], 1.27 OD 450 nm in the test with M (46-109), 0.004 OD 450 nm in test [2] and 0.003 OD 450 nm in test [3].

B3: anti-PSCA monoclonal antibody 4A10 (antibody, part only; not given: light chain, mouse IgG2a, V domains shown, part only)
VH: LVATASDVHSQVQLQQPGSELVRPGTSVKLSCKASGYTFSSYWMHWVKQRPGQGLEWIGNIDPGSGYTNYAENLKTKATLTVDTSSSTAYMQLSSLTSEDSAVYYCTSRSTMITTGFAYWGQGTLVTVSAATTTAPSVYPLA
Regarding B3, the figures for the OD 450 nm in test [1], in test [2] and in test [3] were 1.05 OD 450 nm, 0.493 OD 450 nm and 0.001 OD 450 nm, respectively.

These data come from patent US8524460.
